Assays:
[1] = system: TM-LE15 (truncated form of TMD2 in which the EGF 6 domain is removed)
[2] = system: TMD2-I424A (TMD2 in which the isoleucine at position 424 is substituted with alanine)
[3] = system: human TMD1 (soluble thrombomodulin containing the amino terminal domain, EGF domain and ST domain, without signal peptide)
[4] = system: human TMD2 (wild-type soluble human thrombomodulin truncated immediately after EGF6, without signal peptide)

TM-LE15 (truncated form of TMD2 in which the EGF 6 domain is removed), sequence (chain, as listed by the source): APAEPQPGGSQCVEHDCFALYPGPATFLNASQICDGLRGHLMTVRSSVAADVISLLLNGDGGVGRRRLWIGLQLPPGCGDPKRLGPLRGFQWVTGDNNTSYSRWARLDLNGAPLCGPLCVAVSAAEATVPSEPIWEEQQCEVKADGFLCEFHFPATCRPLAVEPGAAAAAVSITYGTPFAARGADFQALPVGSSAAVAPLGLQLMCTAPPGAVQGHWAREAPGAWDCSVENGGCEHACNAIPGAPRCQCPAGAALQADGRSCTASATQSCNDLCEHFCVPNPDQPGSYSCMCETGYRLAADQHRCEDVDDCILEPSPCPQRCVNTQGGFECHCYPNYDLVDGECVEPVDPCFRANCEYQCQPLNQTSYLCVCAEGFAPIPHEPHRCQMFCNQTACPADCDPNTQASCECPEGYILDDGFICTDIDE

Work on human thrombin yielded a Vmax (mOD405/min) of human protein C activation [1] of 8.3 mOD405/min, a Vmax (mOD405/min) of human protein C activation [2] of 6.9 mOD405/min and a Vmax (mOD405/min) of human protein C activation [3] of 43.3 mOD405/min. It also gave a Vmax (mOD405/min) of human protein C activation [4] of 39.1 mOD405/min.
